# Experimental data taken from the supplement of paper PMC10724198.
# ± gives the standard deviation of the averaged measurements.
# System: Saccharomyces cerevisiae
# Experiment: protein stability index of tFT-peptide fusion (C-terminal peptide) (PSI (0-1 scale)); higher = more stable (slower turnover)
# Conditions: genetic background: wild type; temperature: 30 C
# 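Note: PSI is a weighted mean of sequencing reads over stability bins, variants kept only with over 10 reads, mCherry proximal and sfGFP distal, peptide attached via GGGS linker.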
row,Sequence,protein stability index
1,RKNQGKKREPRA,0.653 ± 0.079
2,RKSSAGLERATG,0.685 ± 0.018
3,RKYGWSGIGCRA,0.659 ± 0.016
4,RLASPSIISSTL,0.702 ± 0.0076
5,RLCDAAVGPEGG,0.674 ± 0.05
6,RLETKNITRKHI,0.681 ± 0.018
7,RLFRRSPTPALR,0.8 ± 0.067
8,RLFSFPPPPTPP,0.705 ± 0.011
9,RLFTLVPIGPFM,0.704 ± 0.055
10,RLGGGGVGGAGV,0.699 ± 0.019
11,RLGGGGVGVAGV,0.679 ± 0.00083
12,RLGGRGGRLGAE,0.655 ± 0.0068
13,RLGLVVRPCSPP,0.6864 ± 0.0015
14,RLGYSWGECPGG,0.699 ± 0.012
15,RLKFMTGLFLWS,0.73 ± 0.019
16,RLKGSPHPVFLY,0.753 ± 0.055
17,RLLGRPFRHERG,0.698 ± 0.043
18,RLLKRAVRKIFT,0.61808 ± 0.00049
19,RLPAPPTVPLPP,0.6 ± 0.042
20,RLPPALRRNAPP,0.665 ± 0.18
21,RLPSLTGLELFS,0.685 ± 0.025
22,RLPTRRSALMGL,0.738 ± 0.043
23,RLPVPAAFSSSI,0.79 ± 0.047

row,Sequence,protein stability index
1,RLRPRRNMIDHA,0.724 ± 0.057
2,RLRRCPWLRAWR,0.7086 ± 0.005
3,RLSGRRLVNYRP,0.641 ± 0.036
4,RLSGWGLGVWQE,0.681 ± 0.042
5,RLSIEVREWGDG,0.642 ± 0.075
6,RLSSLSSPPPAF,0.693 ± 0.07
7,RLSSVPSRSLPA,0.733 ± 0.096
8,RLSVRPGPLRLL,0.68 ± 0.025
9,RLVFSSCLNALF,0.724 ± 0.073
10,RLVLTHVSRCWQ,0.673 ± 0.065
11,RLVRSPSRFSWR,0.667 ± 0.031
12,RLYGILLLSGKE,0.683 ± 0.019
13,RMLVNKLSAFFI,0.64 ± 0.053
14,RMSLGLHGVMRC,0.683 ± 0.045
15,RNCELQSLSSTL,0.732 ± 0.036
16,RNDAARLLGESG,0.698 ± 0.018
17,RNGFGSWFRWKM,0.7014 ± 0.0069
18,RNGGSTWPLLGA,0.721 ± 0.017
19,RNILMFSNGVDE,0.681 ± 0.014
20,RNLRFEVLAVVI,0.5272 ± 0.0049
21,RNPYNTNTVSNI,0.732 ± 0.08
22,RNRKQEKKENKN,0.695 ± 0.022
23,RNRNKKIIREKK,0.7 ± 0.033

row,Sequence,protein stability index
1,RNSVGGHENWNQ,0.703 ± 0.11
2,RPAASTKWAVQP,0.6923 ± 0.0021
3,RPAVSCYTGGDH,0.7083 ± 0.0056
4,RPDRPSGLLPRP,0.701 ± 0.039
5,RPFHLLPPPPPL,0.73 ± 0.019
6,RPFLVGRISFSS,0.693 ± 0.046
7,RPFPLPPRPSPP,0.673 ± 0.13
8,RPGSMWAQGGVG,0.566 ± 0.0078
9,RPISPIAVGSVV,0.6747 ± 0.0013
10,RPLAVPPRPSPV,0.729 ± 0.049
11,RPLLIYSPFPLF,0.662 ± 0.075
12,RPLNLPPPPAPF,0.659 ± 0.072
13,RPLPPLPRPPSP,0.557 ± 0.02
14,RPPFSPPSDLPL,0.645 ± 0.025
15,RPPGQVSEALEW,0.68961 ± 3.4e-05
16,RPPHSNPPRLVI,0.711 ± 0.045
17,RPPLLSPTRTLP,0.707 ± 0.15
18,RPPPHLTPRVSL,0.689 ± 0.047
19,RPPPHYPHHTAS,0.673 ± 0.018
20,RPPPPPPPSPHL,0.692 ± 0.041
21,RPPPPRLTPPRL,0.756 ± 0.084
22,RPPSLSPAPAPP,0.73 ± 0.027
23,RPPVGTPPLPHS,0.66 ± 0.0091

row,Sequence,protein stability index
1,RPQARAQRRQAC,0.583 ± 0.034
2,RPRKTVTDLMAG,0.663 ± 0.01
3,RPRNRRGGRGDE,0.672 ± 0.0062
4,RPSLPPRSPPPS,0.767 ± 0.069
5,RPSPMPTATPAT,0.701 ± 0.029
6,RPSPPPTPPGPH,0.656 ± 0.039
7,RPSPVLRASHPP,0.638 ± 0.0099
8,RPSRPPPRLLFA,0.644 ± 0.03
9,RPTPSHRTPSIG,0.723 ± 0.016
10,RPVQRLVPLTPR,0.706 ± 0.054
11,RPVRLLPCVCHF,0.679 ± 0.017
12,RQANQVSTSAEN,0.726 ± 0.11
13,RQLPMHLTSPGT,0.66 ± 0.021
14,RQSDPFCCSTHP,0.7449 ± 0.0023
15,RQTTTPHDRDGR,0.566 ± 0.049
16,RQVERRARRDRV,0.671 ± 0.055
17,RRAPASAFPHSP,0.688 ± 0.06
18,RRAPRQKLIPAK,0.6768 ± 0.0055
19,RRDRFSLRGFTE,0.701 ± 0.013
20,RREASLGSYSFE,0.69778 ± 0.00039
21,RREDWQEKRYGL,0.761 ± 0.083
22,RRERRKKTETDK,0.7348 ± 0.0073
23,RRGAVHWKQFTR,0.732 ± 0.072

row,Sequence,protein stability index
1,RRGAVWDLVGDG,0.571 ± 0.029
2,RRGDMSEGEREE,0.672 ± 0.052
3,RRGVPIKKPRYF,0.539 ± 0.029
4,RRGYLVPLPSHA,0.669 ± 0.039
5,RRHGTDEHKTAD,0.674 ± 0.016
6,RRKGRKTSMRNG,0.667 ± 0.048
7,RRKRKQQNTTTE,0.685 ± 0.016
8,RRKRQKEGEIRE,0.7362 ± 0.0064
9,RRLATRMGPCDA,0.682 ± 0.011
10,RRLGVACCVVEG,0.599 ± 0.0061
11,RRLLERSIKRSE,0.696 ± 0.016
12,RRLSRPPNLSRH,0.676 ± 0.021
13,RRMCARRSAAIV,0.665 ± 0.046
14,RRNSAGCRLDKM,0.662 ± 0.09
15,RRPHLLCSPARL,0.883 ± 0.012
16,RRREGGQGERGK,0.694 ± 0.087
17,RRRGEREKRPRA,0.653 ± 0.021
18,RRRLRSGYCCLV,0.6861 ± 0.00091
19,RRRPNSSMYRVS,0.658 ± 0.015
20,RRSAWCAALPGR,0.704 ± 0.0089
21,RRSDTTQQSVSL,0.623 ± 0.077
22,RRSHGLAGPKKG,0.674 ± 0.05
23,RRSVQLQSALFI,0.736 ± 0.069

row,Sequence,protein stability index
1,RRVPPGTPCGTR,0.708 ± 0.073
2,RRVTTSFWPLGS,0.671 ± 0.067
3,RSARGQFRGISC,0.739 ± 0.23
4,RSDGRWYAGGLG,0.737 ± 0.018
5,RSDIANWFLCLS,0.798 ± 0.037
6,RSDPLPKTSAAY,0.644 ± 0.12
7,RSGFTSSPLRSG,0.681 ± 0.034
8,RSGREFLLSSLI,0.718 ± 0.084
9,RSGRSLVGREGG,0.703 ± 0.059
10,RSIQNLQENIIR,0.663 ± 0.073
11,RSLGLVGWGFWG,0.762 ± 0.12
12,RSMLRVELSGVA,0.562 ± 0.031
13,RSPAPPAPPHLP,0.7068 ± 0.0012
14,RSPPPRAPPPSV,0.645 ± 0.06
15,RSPPYRPPCLRP,0.722 ± 0.02
16,RSRAYDSLPADQ,0.682 ± 0.058
17,RSRVLALSCRSA,0.641 ± 0.029
18,RSRYWRTHGKVN,0.557 ± 0.028
19,RSSPAVPPSPRP,0.6918 ± 0.0066
20,RSSPRCPPSPGH,0.7247 ± 0.0018
21,RSSSGANLQTTL,0.6517 ± 0.0031
22,RSTLGLAPPQSG,0.67 ± 0.029
23,RSTPPHAHRSPP,0.716 ± 0.015

row,Sequence,protein stability index
1,RSVPHPGGPSPC,0.649 ± 0.037
2,RSVPLLFPSLFL,0.72 ± 0.027
3,RSVQSATSHGYQ,0.749 ± 0.15
4,RSYFGLACPSVS,0.626 ± 0.03
5,RSYGVGYEGDKG,0.719 ± 0.054
6,RTAEGRVRGRPR,0.689 ± 0.067
7,RTASRSVSTTQN,0.745 ± 0.024
8,RTGAPSGEACCA,0.676 ± 0.026
9,RTGRTCADRPTP,0.757 ± 0.043
10,RTGVTKYSETLI,0.677 ± 0.091
11,RTIPSPDVRTRD,0.77 ± 0.011
12,RTKTQGKKRRQN,0.57 ± 0.032
13,RTPRGCSLAYRA,0.72 ± 0.11
14,RTRKYEDKSARM,0.688 ± 0.021
15,RTRRPSRTRSAS,0.772 ± 0.072
16,RTTNHRLPQPPR,0.632 ± 0.063
17,RVCPPPLRRLLS,0.693 ± 0.081
18,RVGERVEGGGVV,0.6085 ± 0.0034
19,RVGGVVRGERAR,0.671 ± 0.01
20,RVGSRRGVVCLL,0.7526 ± 0.0014
21,RVGWCGGWRGGR,0.677 ± 0.059
22,RVHEMSLGPIRL,0.715 ± 0.036
